# Test results taken from the nanobody polyreactivity screen of Harvey et al. (2022).
# Experiment: yeast display, Sf9 membrane polyspecificity reagent, FACS + sequencing; frameworks hold sequencing errors
# Summary of the method: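 Sorting gates, low and high (top ~1%), were placed on anti-HA fluorescence to track expression and on streptavidin fluorescence to track reagent binding. A clone's polyreactivity label is taken from the gate it came out of. The reagent was 10% biotinylated, detergent-solubilized Sf9 membrane, applied for 1 hour at 4 °C to galactose-induced yeast display cells.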
row,Sequence,polyreactivity (PSR sort gate)
1,QVQLVESGGGLGQAGGSLRLSCAASGRIFIDYAMGWYRQAPGKERELVAAITYSTGGTYYGDSVKGRFTISRDNAKNTVYLQMNSLKPEDTAVYYCNATYVWPGRRRDGYWGQGTQVTVSS,low polyreactivity
2,QVQLVESGGGLGQAGGSLRLSCAASGRIFVDYAMGWYRQAPGKERELVAAINSGGSTNYADSVKGRFTISRDNAKNTVNLQMNSQKPEDTAVYYCNKDTLVYGYVQDYEYWGQGTQVTVSS,low polyreactivity
3,QVQLVESGGGLGQAGGSLRLSCAASGRTFRLYAMGCYRQAPGKERELVASITSTGRTYYADSVKGRFTISRDNAKNTVYLQMNSLKPEDTAVYYCNAVALSNCEYDYWGQGTQVTVSS,high polyreactivity
4,QVQLVESGGGLGQAGGSLRLSCAASGRTFYIYAMGWYRQAPGKERELVAANTWSTGGTYYADSVKGRFTISRDNAKNTVYLQMNSLKPEDTAVYYCAAGYDYKSTRHYYWGQGTQVTVSS,high polyreactivity
5,QVQLVESGGGLGQAGGSLRLSCAASGRTLGIYAMGWYRPAPGTERELVAAITNGDSTHYADSVKGRFTISRDNAKNTVYLQMNSLKPEDTAVYYCAAEDHYEGYGGYYWGQGTQVTVSS,low polyreactivity
6,QVQLVESGGGLGQAGGSLRLSCAASGSIFERNAMGWYRQAPGKERELVAAISSSGVSTYYADSVKGRFTISRDNAKNTVYLQMNSLKPEDTAVYYCNAVWRLRVRYGYWGQGTQVTVSS,high polyreactivity
7,QVQLVESGGGLGQAGGSLRLSCAASGSIFGRYAMGWYRQAPGKERELVTVITSGGSTNYADSVKGRFTISRDNAKNTVYLQMNSVKPEDTAVFYCAVRPYELHRLADQHGGDDYWGQGTQVTVSS,low polyreactivity
8,QVQLVESGGGLGQAGGSLRLSCAASGSIFHPYAMGWYRQAPGKERELVASITSSGGSTYYADSVKGRFTISRDTAKNTVYLQMNSMKPEDTAVYYCNAQFLVYFYWYSTTAYIMYYWGQGTQVTVSS,low polyreactivity
9,QVQLVESGGGLGQAGGSLRLSCAASGSIFYSYAMGSYRQATGKERELVAAINWSGGSTYYADSVKGRFTISRDNAKNTVSLLMNSLKPEDTAVYYCAAGPGDSGDDYWGQCTQVTVSS,low polyreactivity
10,QVQLVESGGGLGQAGGSLRLSCAASGSTFYKYAMGWYRQAPGKERELVASITWSGTSTYYADSVKGRFTISRDNQKNTVFLQMNSLKAEDTAVYYCAAPKLDDYDYWGQGTQVTVSS,low polyreactivity
11,QVQLVESGGGLGQAGGSLRLSCAASGYIFPIYAMGWYRQAPGKERELVAAITESGGSTYYADSVKGRFTISRDNAKNTVYLQMNSLKQEDTAVYYCAKEVVKHPRGKLDYWGQGTQVTLSS,low polyreactivity
12,QVQLVESGGGLGQAGGSLRLSCAASGYTFARNAMGWYRQAPGKEREMVAAINWSGTNTYYADSVKGRFTISRDNAKNTVYLQMNSLKPEDTAVYYCAKDLYFSGYEFDYWGQGTQVTVSS,low polyreactivity
13,QVQLVESGGGLGQAGGSLRLSSAASGRTFVFYAMGWYIQAPGKERELVAAITSSGGRTYYADSVKGRFTISRDNAKNTVYLQMNSLKPEDTAVYYCAAPYYPYKYDSWGQGTQVTGSS,low polyreactivity
14,QVQLVESGGGLGQAVGRLRLSCAASGSTFDPNTMGWYRQAPGKERELVATITSVDSTNYADSVKGRFTISRDNAKNTVYLQMNSLKPEDTAVSYCNAAYGGVFFYAYDYWGQGTQVTVSS,low polyreactivity
15,QVQLVESGGGLIQAGGSLRLSCAASGIIFYPYTMGWYRQAPGKERELVAAIRQSGTSTYYADSVKGRFTISRDNAKNTVYLQMNSLKPEDTAVYYCNADDHIYWRKGYDYWGQGTQVTVSS,low polyreactivity
16,QVQLVESGGGLLHAGGSLRLSCAASGRTFPSYAMGWYRQAPGKERELVAAISSRGSRTYYADSVKGRFTISRDNAKNTVYLQMYSLKPEDTAVYYCAAKNLWTRKSRYDYWGQGTQVTVSS,high polyreactivity
17,QVQLVESGGGLLKAGGSLRLSCAASGFTVDGYGMGWYRQAPGKERELVAVITSGGSTKYADSVKGRYTISRDNAKITVYLQMKSLKPEDTAVYYCNVVGGRYLYSAYDYWGQGTQVTVSS,low polyreactivity
18,QVQLVESGGGLLKAGGSLRLSCAASRITFYIYPIVWYRQAPGKERELVATISWSDGRTYYADSVKGRFTISRDNAEHTVYLQLYSLKPEDTAVYYCAADWWYYQFDYEYWGQGTPVTVSS,low polyreactivity
19,QVQLVESGGGLLLAGGSLRLSCAASGNIFRANTRGWYRQAPGKERELVASIRRSGGSTYYADSVKGRFTISRDNAKNTVYLQMNSLKPEDTAVYYCAAKSRPPYTDNYYWGQGTQVTVSS,high polyreactivity
20,QVQLVESGGGLLQAAGSLSLSCAASGSIFKYYAMGWYRQAPGKERELVAAISASGGSTSYADSVKGRFTISRDNAKNTVYLQMNSLKPEDTAVYYCAADGVSYAYRYDYWGQGTQVTVSS,low polyreactivity
21,QVQLVESGGGLLQAGGRLRLSCAASGSIFAAYTMGWYRQAPWKERELVAAISVSTVSTYYADSVKGRFTISRDNAKITVYLQMNSLKPEDTAVYYCNADPTDSYPQKYEHDSWGQGTQVTVSS,low polyreactivity

row,Sequence,polyreactivity (PSR sort gate)
1,QVQLVESGGGLLQAGGSLPLSCAASGRIFHQYAMGWYRQAPGKERELVAAISKTGTRTYYADSVKGRFTISRDNAKNTVYFQINSLKPDDTAVYYCNALYWTVYSREYDYWGQATQVTVSS,high polyreactivity
2,QVQLVESGGGLLQAGGSLPLSCAASGSIFPGYAMGWYRQAPGKERELVATITWSGGSTYYADSVKGRFTISRDNAKNTVYLQMNSLNPADTAVYYCNADSNWYYQWNYYGLYDYWGQATQVTVSS,low polyreactivity
3,QVQLVESGGGLLQAGGSLRISCAASGIIFRLYDMAWYRQAPGKERELVAAISSGGSTYYADSVKGRFTISRDNAKNTVYLQMNSLKPVDTAVYYCNARVRYKRTGRYGYWGQVTQVTVSS,high polyreactivity
4,QVQLVESGGGLLQAGGSLRISCAASGSTFGVYAMGWYIPAPGKERELVAVIRRGGGTDYADSVKGRYTISRDNAKNTVYLQLDSLIPVDTAVYSCAATVVRTGYLTLEMDYWGQGTQVTVSA,low polyreactivity
5,QVQLVESGGGLLQAGGSLRLICAASGSTFSTNAMGWYRQAPGKERELVAAISRSGGSTNYADSVKGRFTISRDNAKNTVYLQMNSLKPEDTAVYYCARYSYRGTNVRYDYWGQGTQVTVSS,high polyreactivity
6,QVQLVESGGGLLQAGGSLRLSCAASGFIFRRNAMGWYIQAPGKEREFVASISKSSDLTYYADSVKGRFRISRDNAKNTVYLQMNSLKPEVTAVYYCAAKVRQWRHGSYSSQYDYWGQGTQVTVSS,high polyreactivity
7,QVQLVESGGGLLQAGGSLRLSCAASGFTIDRYAMGWYRQAPGKERELVAAISWGGGSTYYAVSVKGRFTISRDNAKNTVYLQMNSLKPEDTAVYYCAASRGFYHPKYESWGQGTQVTVSS,high polyreactivity
8,QVQLVESGGGLLQAGGSLRLSCAASGFTIYGYGMGWYRQAPGKERELVAGITARGSSTYYADSVKGRFTISRDNAKNTVYLQMNSLKPEDTAVYYCNSVGARVASATGMEYWGQGTQVTVSS,high polyreactivity
9,QVQLVESGGGLLQAGGSLRLSCAASGGMFKYNAMGWYRQAPRKARELVPAINYSGGRTYYADSVKGRFTISRDNAKNTVYLQMTSLKPEDTAVDYCNALTRGHTGQPYTYDYWGQGTQVTVSS,high polyreactivity
10,QVQLVESGGGLLQAGGSLRLSCAASGGTFERNAMGWYRQAPGKERELVAAISISGGRTYYADSVKGRFTISRDNAKNTVYLQMKSLKPEDTAVYFCAAGVGSRIKQVGNDYWGQGTQVTVSS,high polyreactivity
11,QVQLVESGGGLLQAGGSLRLSCAASGIIFFYYSMGWYRQAPGKERELVAAISSDGSTYYADSVKGRFTSSRDNAKNTVYLQMNSLKPEDTAVDYCAAQYNHWWEYDYWGQGTQVTVSS,low polyreactivity
12,QVQLVESGGGLLQAGGSLRLSCAASGIIFSDYAMGRYRQAPRKERELVAAITSSGGSTYYADSVKGRFTISRDNAKNTVYLQMNSLKPEDPAVYYCAAQCYDYWYDYDYWGQGTQVTVSS,high polyreactivity
13,QVQLVESGGGLLQAGGSLRLSCAASGIILYWNTMGWYRQAPGKERELVAAITWSVGRTYYADSVKGRFTISRDNAKNTVYLQMNSLKPEDTAVYYCNAGYDSYSRDYWGQGTQVTVSS,low polyreactivity
14,QVQLVESGGGLLQAGGSLRLSCAASGITFQGYAMGWYRQAPGKERELVAAITYRGGSTYYADSVKGRFTISRDNAKNTVYLQMNSLKPEDTAVYYCARDHSRHLHPSWLDYWGQGTQVTVSS,high polyreactivity
15,QVQLVESGGGLLQAGGSLRLSCAASGITFTGYAMGWYRQAPGKERELVAVISETGGSTYADSVKGRFTISRDNAKNTVYLQMNSLKPEDTAVYYCAARLWWPYSTAWAKMDYWGQGTQVTVSS,low polyreactivity
16,QVQLVESGGGLLQAGGSLRLSCAASGLIFANYAMGWYRQAPGKERELVAAITWSGGTTYYADSVKGRFTISRDNAKNTVYLQMNSLKPEDTAVYYCAAEVPYYQAAEYDYWGQGTQVTVSS,low polyreactivity
17,QVQLVESGGGLLQAGGSLRLSCAASGNIFYRYAMGWYRQAPGKERELVAAISGNSGNTYYADSVKGRFTISRDNAKNTVYLQIHSLNPEDTAVYYSAAERRAFGHYSGGQGTQVTVSS,high polyreactivity
18,QVQLVESGGGLLQAGGSLRLSCAASGNTFITNAKGWYRQAPGKERDLVAAISSGGTTYYADSVKGRFTISRDTAKNTVYLQMYSLKPEDTAVYYCATDIHSVHNNRDKHDYDYWGQGTQVTVSS,low polyreactivity
19,QVQLVESGGGLLQAGGSLRLSCAASGRIFAQYAMGWYRQAPGKEREFDAGISTTGGSTYYADSVKGRFTISRDNAKNTVYLQMNSLKPEETAVYYCAADRRDRSPFYYWGQGTQVTVSS,high polyreactivity
20,QVQLVESGGGLLQAGGSLRLSCAASGRIFGSYAMGWYRQAPGKERELVAGIRSVGSTNYADSVKGRFTISRDNAKNTVYLQMNSLKPEDTAVYYCAARLWHLSYAGQGGDYWGQGTQVTVSS,low polyreactivity
